This is an account of results in patent US20250243243A1, “DISRUPTION OF SONIC HEDGEHOG-SURF4 INTERACTION FOR CANCER TREATMENT” (The Hong Kong University of Science and Technology, priority 2022, published 2025).

For one test, the target named is IGF2-HA (human) (UniProt P01344). In words: anti-HA immunoprecipitation from HEK293T lysate, label-free quantitative mass spectrometry; 2 unique peptides; untransfected Control Group printed 247624.8556.
The target in test [1] is ShhN^1-198-HA (mouse) (UniProt Q62226). The description is as above.
For test [2] the target is unchanged. Description: anti-HA immunoprecipitation from HEK293T lysate, label-free quantitative mass spectrometry; ratio of the ShhN-HA group to the IGF2-HA group.

Chain of ShhN^1-198-HA (mouse) (Q62226 25-198): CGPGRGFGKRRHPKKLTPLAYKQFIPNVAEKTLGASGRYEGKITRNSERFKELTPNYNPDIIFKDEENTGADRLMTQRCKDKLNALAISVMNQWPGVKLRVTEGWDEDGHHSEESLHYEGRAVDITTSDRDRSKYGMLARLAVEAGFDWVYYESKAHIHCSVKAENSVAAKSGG

B1: CLINT1 (protein, human (HEK293T cells), UniProt Q14677 1-625, looked up)
single chain: MLNMWKVRELVDKATNVVMNYSEIESKVREATNDDPWGPSGQLMGEIAKATFMYEQFPELMNMLWSRMLKDNKKNWRRVYKSLLLLAYLIRNGSERVVTSAREHIYDLRSLENYHFVDEHGKDQGINIRQKVKELVEFAQDDDRLREERKKAKKNKDKYVGVSSDSVGGFRYSERYDPEPKSKWDEEWDKNKSAFPFSDKLGELSDKIGSTIDDTISKFRRKDREDSPERCSDSDEEKKARRGRSPKGEFKDEEETVTTKHIHITQATETTTTRHKRTANPSKTIDLGAAAHYTGDKASPDQNASTHTPQSSVKTSVPSSKSSGDLVDLFDGTSQSTGGSADLFGGFADFGSAAASGSFPSQVTATSGNGDFGDWSAFNQAPSGPVASSGEFFGSASQPAVELVSGSQSALGPPPAASNSSDLFDLMGSSQATMTSSQSMNFSMMSTNTVGLGLPMSRSQNTDMVQKSVSKTLPSTWSDPSVNISLDNLLPGMQPSKPQQPSLNTMIQQQNMQQPMNVMTQSFGAVNLSSPSNMLPVRPQTNALIGGPMPMSMPNVMTGTMGMAPLGNTPMMNQSMMGMNMNIGMSAAGMGLTGTMGMGMPNIAMTSGTVQPKQDAFANFANFSK
On to B1, for which the abundance in The IGF2 Group with IGF2-HA (human) came to 78500. The molecule also had an abundance in The ShhN Group in the test with ShhN^1-198-HA (mouse) [1] of 275000. Besides, in the test with ShhN^1-198-HA (mouse) [2], the Abundance Ratio ShhN:IGF2 was determined as 3.5.
